Data reported in paper PMC8227628, “DisA Limits RecG Activities at Stalled or Reversed Replication Forks” (Cells, 2021).
One block for each molecule: values may come before it.

How the values were obtained:
DisA [1] = target: T1, DisA (Bacillus subtilis, UniProt P37573); assay: TLC of conversion to c-di-AMP; format: biochemical; details: 10 mM MgCl2, 100 µM ATP, pH 7.5, 37 °C, no DNA; labelled compound
T1 construct: full length, expressed in E. coli BL21(DE3) pLysS; octamer; C-terminal His tag in the pull-down variant
T1 sequence (P37573 1-360): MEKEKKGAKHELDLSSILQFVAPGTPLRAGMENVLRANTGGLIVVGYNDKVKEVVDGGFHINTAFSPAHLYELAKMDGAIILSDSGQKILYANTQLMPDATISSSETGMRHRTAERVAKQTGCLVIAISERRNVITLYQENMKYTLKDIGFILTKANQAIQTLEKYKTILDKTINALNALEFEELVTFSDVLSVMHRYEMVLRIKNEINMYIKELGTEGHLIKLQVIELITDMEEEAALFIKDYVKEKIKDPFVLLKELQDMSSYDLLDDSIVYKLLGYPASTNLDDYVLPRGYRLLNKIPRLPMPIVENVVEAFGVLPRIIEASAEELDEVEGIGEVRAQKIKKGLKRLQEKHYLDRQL

DisA [2] = target: T2, DisA (Bacillus subtilis, UniProt P37573 1-360); assay: EMSA; 5 mM ATPgS; 37 C; 0.2% glutaraldehyde before loading; apparent Kd; complexes retained in well; EMSA: 0.1 nM HJ-J3 in buffer B (composition not in material) with 5 mM ATPgS, 15 min, 37 C, 0.2% glutaraldehyde before 6% PAGE in TAE; DNase I: buffer C 50 mM Tris-HCl pH 7.5, 1 mM DTT, 50 mM NaCl, 10 mM MgCl2, 0.05 mg/mL BSA, 5% glycerol, 5 mM ATPgS, 37 C; details: protein: recombinant; chain copies: 8; label: 32P (gamma-32P, 5' end of one strand); four-way Holliday junction of 4 strands, 1 copy each, heterologous arms
T2 sequence: T1 sequence (P37573 1-360)

RecG = target: T3, RecG (Bacillus subtilis, UniProt O34942 1-682); assay: EMSA; 5 mM ATPgS; 37 C; 0.2% glutaraldehyde before loading; apparent Kd; G-I and minor G-II complexes; EMSA: 0.1 nM HJ-J3 in buffer B (composition not in material) with 5 mM ATPgS, 15 min, 37 C, 0.2% glutaraldehyde before 6% PAGE in TAE; DNase I: buffer C 50 mM Tris-HCl pH 7.5, 1 mM DTT, 50 mM NaCl, 10 mM MgCl2, 0.05 mg/mL BSA, 5% glycerol, 5 mM ATPgS, 37 C; details: protein: recombinant; label: 32P (gamma-32P, 5' end of one strand); four-way Holliday junction of 4 strands, 1 copy each, heterologous arms
T3 sequence: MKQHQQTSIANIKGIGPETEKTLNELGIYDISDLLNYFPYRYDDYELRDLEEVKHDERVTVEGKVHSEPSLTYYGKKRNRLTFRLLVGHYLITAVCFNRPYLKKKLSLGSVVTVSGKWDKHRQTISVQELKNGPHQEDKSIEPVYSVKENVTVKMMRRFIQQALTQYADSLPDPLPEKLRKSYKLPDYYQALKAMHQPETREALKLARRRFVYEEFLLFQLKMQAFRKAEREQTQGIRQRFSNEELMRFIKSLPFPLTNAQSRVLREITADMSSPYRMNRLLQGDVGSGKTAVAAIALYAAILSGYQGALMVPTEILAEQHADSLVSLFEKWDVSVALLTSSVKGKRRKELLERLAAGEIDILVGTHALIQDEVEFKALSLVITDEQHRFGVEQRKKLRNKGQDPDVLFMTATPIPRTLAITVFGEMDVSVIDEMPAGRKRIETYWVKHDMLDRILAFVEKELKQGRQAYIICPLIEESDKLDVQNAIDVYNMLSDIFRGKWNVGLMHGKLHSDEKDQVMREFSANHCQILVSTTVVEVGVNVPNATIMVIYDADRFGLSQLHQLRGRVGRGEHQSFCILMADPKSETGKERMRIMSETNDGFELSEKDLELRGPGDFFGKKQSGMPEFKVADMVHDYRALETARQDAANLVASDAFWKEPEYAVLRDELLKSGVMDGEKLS

DisA;RecG = target: T4, DisA;RecG (Bacillus subtilis;Bacillus subtilis, UniProt P37573;O34942 1-360;1-682, |); assay: DNase I footprinting; 5 mM ATPgS, 10 mM Mg2+; 60 nM RecG with increasing DisA; shorter protection on both sides of junction; ternary complex proposed; EMSA: 0.1 nM HJ-J3 in buffer B (composition not in material) with 5 mM ATPgS, 15 min, 37 C, 0.2% glutaraldehyde before 6% PAGE in TAE; DNase I: buffer C 50 mM Tris-HCl pH 7.5, 1 mM DTT, 50 mM NaCl, 10 mM MgCl2, 0.05 mg/mL BSA, 5% glycerol, 5 mM ATPgS, 37 C; details: protein: recombinant;recombinant; tags: ;; chain copies: 8;1; label: 32P (gamma-32P, 5' end of one strand); four-way Holliday junction of 4 strands, 1 copy each, heterologous arms
T4 sequence 1: T1 sequence (P37573 1-360)
T4 sequence 2: T3 sequence

His-tagged DisA = target: T5, His-tagged DisA (B. subtilis, UniProt P37573 1-360); assay: cell-based or functional assay
T5 sequence (looked up): T1 sequence (P37573 1-360)

Molecule: Nc1ncnc2c1ncn2[C@@H]1O[C@@H]2COP(=O)(O)O[C@H]3[C@@H](O)[C@H](n4cnc5c(N)ncnc54)O[C@@H]3COP(=O)(O)O[C@H]2[C@H]1O [c-di-AMP]
- TLC of [α^32P]-ATP conversion to c-di-AMP (DisA [1]): it efficiently converted two ATP molecules into c-di-AMP

B1: HJ-J3 DNA (fixed Holliday junction) (structured_DNA)
DNA 1: CGCAAGCGACAGGAACCTCGAGAAGCTTCCGGTAGCAGCCTGAGCGGTGGTTGAATTCCTCGAGGTTCCTGTCGCTTGCG
DNA 2: CGCAAGCGACAGGAACCTCGAGGAATTCAACCACCGCTCAACTCAACTGCAGTCTAGACTCGAGGTTCCTGTCGCTTGCG
DNA 3: CGCAAGCGACAGGAACCTCGAGTCTAGACTGCAGTTGAGTCCTTGCTAGGACGGATCCCTCGAGGTTCCTGTCGCTTGCG
DNA 4: CGCAAGCGACAGGAACCTCGAGGGATCCGTCCTAGCAAGGGGCTGCTACCGGAAGCTTCTCGAGGTTCCTGTCGCTTGCG
- Kd (DisA [2]): 0.017 ± 0.001 µM
- Kd (RecG): 0.004 ± 0.0003 µM
- binding result (DisA;RecG): binds

- inhibition of the DAC activity (c-di-AMP synthesis) of DisA (25 nM) with HJ-J3 DNA (125 nM) and 100 µM ATP, RecG 7 to 30 nM (His-tagged DisA): ~11 fold
B2: native RecG (natural protein, B. subtilis, UniProt O34942 1-682, looked up)
chain: T3 sequence
